# Results as given in PMC7094590.
# Molecular target: wild-type HCoV-229E Nsp9 (non-structural protein 9 of human coronavirus 229E) (human coronavirus 229E)
# Assay: crystal structure
substance,measurement,value
wild-type HCoV-229E Nsp9 (non-structural protein 9 of human coronavirus 229E) (natural protein),stoichiometry N,2
